The values below come from article PMC5826061.

The data set addresses T1, GlnR (Streptomyces coelicolor) (UniProt Q05943).
T1 sequence: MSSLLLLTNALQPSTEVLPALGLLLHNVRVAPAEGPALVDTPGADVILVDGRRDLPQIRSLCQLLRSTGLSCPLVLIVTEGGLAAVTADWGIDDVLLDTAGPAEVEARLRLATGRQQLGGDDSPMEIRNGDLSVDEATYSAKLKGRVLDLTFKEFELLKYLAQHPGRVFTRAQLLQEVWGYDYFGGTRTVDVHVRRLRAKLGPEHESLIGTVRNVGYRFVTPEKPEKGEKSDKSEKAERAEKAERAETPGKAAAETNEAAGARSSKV
Briefly: DNase I footprinting. The note with it: 50 mM Tris-HCl pH 8.0, 100 mM KCl, 2.5 mM MgCl2, 1 mM DTT, 10% glycerol; EMSA in 20 ul with 100 ng/ul sheared salmon sperm DNA, room temperature, 20 min ….
Regarding “GTAAAACGACGGCCAGTCCATGCCAGGTCATTCGGAGGCCGCCGCGGCCGGCTTGCGTTCCGGGCCGGACGGCCCGGGCACGACGACGACCGGCCCCGGCCGTTCACCCACGCGTAACACGCACCGTGCCTTCGTCACGGCGGCGAAACAACGAGAAATCTCCACCGAAACCGCGCTGCGTCAATGTCGTGGCGCATAACCGGCCCACCCCTCACCGCCCGCCCGCCAGGCTTCGCCCCCACGGGGCCGCACCAACGACGAGGAGACGCCGATGTCTAGATTTTT (double strand) [amtB promoter a2m footprint probe]”, the binding entry is recorded as “binds”. On to “GTAAAACGACGGCCAGTCCATGCCAGGTCATTCGGAGGCCGCCGCGGCCGGCTTGCGTTCCGGGCCGGACGGCCCGGGCACGACGACGACCGGCCCCGGCCGTTCACCCACGCGTAACACGCACCGTGCCTTCGTCACGGCGGCGAAACAACGAGGGGCTTCCACCGAAACCGCGCTGCGTCAATGTCGTGGCGCATAACCGGCCCACCCCTCACCGCCCGCCCGCCAGGCTTCGCCCCCACGGGGCCGCACCAACGACGAGGAGACGCCGATGTCTAGATTTTT (double strand) [amtB promoter WT footprint probe]”, for which the binding entry is “binds”. The same measure for “GTAAAACGACGGCCAGTCCATGCCAGGTCATTCGGAGGCCGCCGCGGCCGGCTTGCGTTCCGGGCCGGACGGCCCGGGCACGACGACGACCGGCCCCGGCCGTTCACCCACGCGTAACACGCAGGGGCTTCCACCGAAACCGCGCTGCGTCAATGTCGTGGCGCATAACCGGCCCACCCCTCACCGCCCGCCCGCCAGGCTTCGCCCCCACGGGGCCGCACCAACGACGAGGAGACGCCGATGTCTAGATTTTT (double strand) [amtB promoter m3 footprint probe]”: “binds”.
